According to publication PMC11602133:

Target: T1, … 3 (SEP3), in vitro produced (Arabidopsis), O22456
T1 chain: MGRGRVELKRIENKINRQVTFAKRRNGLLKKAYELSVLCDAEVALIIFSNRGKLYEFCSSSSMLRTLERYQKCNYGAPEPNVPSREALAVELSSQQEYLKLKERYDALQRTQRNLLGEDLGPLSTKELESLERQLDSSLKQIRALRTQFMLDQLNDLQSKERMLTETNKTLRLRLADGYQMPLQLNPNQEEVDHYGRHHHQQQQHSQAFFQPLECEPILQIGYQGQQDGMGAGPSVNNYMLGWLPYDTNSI
Test: native gel or EMSA; in vitro produced proteins (wheat germ TnT) mixed with a DY-682 labelled ~100 bp DNA probe containing a CArG-box (SAUR10 probe); protein complexes read from the shifted bands on DNA; anti-FLAG antibody added for supershift where FUL-FLAG was used
Conditions: remark: other sources report otherwise

B1: … 3 (SEP3), in vitro produced, O22456 1-251 (natural protein)
chain: MGRGRVELKRIENKINRQVTFAKRRNGLLKKAYELSVLCDAEVALIIFSNRGKLYEFCSSSSMLRTLERYQKCNYGAPEPNVPSREALAVELSSQQEYLKLKERYDALQRTQRNLLGEDLGPLSTKELESLERQLDSSLKQIRALRTQFMLDQLNDLQSKERMLTETNKTLRLRLADGYQMPLQLNPNQEEVDHYGRHHHQQQQHSQAFFQPLECEPILQIGYQGQQDGMGAGPSVNNYMLGWLPYDTNSI
stoichiometry N: 2
